{"source": "paper PMC5695660", "about": "(Nature chemical biology, 2013)", "molecules": {"B1": {"name": "Cdc37 (human, full length), bacterially expressed (natural protein, UniProt Q16543 1-378, looked up)", "chain": "MVDYSVWDHIEVSDDEDETHPNIDTASLFRWRHQARVERMEQFQKEKEELDRGCRECKRKVAECQRKLKELEVAEGGKAELERLQAEAQQLRKEERSWEQKLEEMRKKEKSMPWNVDTLSKDGFSKSMVNTKPEKTEEDSEEVREQKHKTFVEKYEKQIKHFGMLRRWDDSQKYLSDNVHLVCEETANYLVIWCIDLEVEEKCALMEQVAHQTIVMQFILELAKSLKVDPRACFRQFFTKIKTADRQYMEGFNDELEAFKERVRGRAKLRIEKAMKEYEEEERKKRLGPGGLDPVEVYESLPEELQKCFDVKDVQMLQDAISKMDPTDAKYHMQRCIDSGLWVPNSKASEAKEGEEAGPGDPLLEAVPKTGDEKDVSV"}}, "key": {"[1]": {"biological_target": "Cdc37 (human, full length), bacterially expressed (human) (UniProt Q16543)", "test": "ITC"}, "Cak1p": {"biological_target": "T1, Cak1p (Saccharomyces cerevisiae, UniProt P43568)", "T1 sequence (P43568 1-368)": "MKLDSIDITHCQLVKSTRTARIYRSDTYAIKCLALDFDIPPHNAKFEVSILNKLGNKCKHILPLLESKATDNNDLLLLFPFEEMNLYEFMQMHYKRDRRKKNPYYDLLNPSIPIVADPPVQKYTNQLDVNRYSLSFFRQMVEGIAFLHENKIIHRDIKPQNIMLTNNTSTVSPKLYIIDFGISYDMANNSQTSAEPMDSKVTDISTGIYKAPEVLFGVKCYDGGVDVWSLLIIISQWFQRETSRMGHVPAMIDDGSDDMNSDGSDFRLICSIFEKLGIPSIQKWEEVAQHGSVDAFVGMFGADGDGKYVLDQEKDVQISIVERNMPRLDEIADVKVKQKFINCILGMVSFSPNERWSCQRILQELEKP", "test": "isothermal titration calorimetry", "type": "binding"}, "[2]": {"biological_target": "B1", "test": "SEC"}, "[3]": {"biological_target": "T2, Hsp90β, bacterially expressed (human, UniProt P08238 1-724)", "T2 sequence (P08238 whole entry)": "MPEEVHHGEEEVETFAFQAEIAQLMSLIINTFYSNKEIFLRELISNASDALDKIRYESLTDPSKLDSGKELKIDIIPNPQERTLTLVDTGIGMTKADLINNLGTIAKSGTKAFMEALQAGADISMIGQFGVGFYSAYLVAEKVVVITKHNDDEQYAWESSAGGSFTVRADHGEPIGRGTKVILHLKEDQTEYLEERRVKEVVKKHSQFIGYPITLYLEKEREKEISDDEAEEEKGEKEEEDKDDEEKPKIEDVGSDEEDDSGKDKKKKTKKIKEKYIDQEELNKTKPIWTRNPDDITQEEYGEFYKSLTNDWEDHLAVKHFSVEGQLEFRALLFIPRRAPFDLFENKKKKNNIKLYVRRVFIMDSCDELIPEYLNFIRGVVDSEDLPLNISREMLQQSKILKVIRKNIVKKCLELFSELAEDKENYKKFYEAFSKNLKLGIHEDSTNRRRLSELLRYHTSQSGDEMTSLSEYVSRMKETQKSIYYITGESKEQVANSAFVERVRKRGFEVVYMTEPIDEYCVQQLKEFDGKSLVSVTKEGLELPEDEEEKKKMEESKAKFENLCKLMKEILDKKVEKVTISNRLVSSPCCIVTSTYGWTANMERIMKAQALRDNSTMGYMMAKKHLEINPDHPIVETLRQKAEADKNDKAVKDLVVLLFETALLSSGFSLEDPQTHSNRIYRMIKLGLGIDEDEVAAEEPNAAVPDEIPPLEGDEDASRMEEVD", "test": "SEC"}, "[4]": {"biological_target": "T2, Hsp90β, bacterially expressed", "test": "SEC", "remark": "listed apart in the source"}, "budding yeast Cdc37p": {"biological_target": "T3, budding yeast Cdc37p (budding yeast, UniProt P06101 1-506)", "T3 sequence (looked up)": "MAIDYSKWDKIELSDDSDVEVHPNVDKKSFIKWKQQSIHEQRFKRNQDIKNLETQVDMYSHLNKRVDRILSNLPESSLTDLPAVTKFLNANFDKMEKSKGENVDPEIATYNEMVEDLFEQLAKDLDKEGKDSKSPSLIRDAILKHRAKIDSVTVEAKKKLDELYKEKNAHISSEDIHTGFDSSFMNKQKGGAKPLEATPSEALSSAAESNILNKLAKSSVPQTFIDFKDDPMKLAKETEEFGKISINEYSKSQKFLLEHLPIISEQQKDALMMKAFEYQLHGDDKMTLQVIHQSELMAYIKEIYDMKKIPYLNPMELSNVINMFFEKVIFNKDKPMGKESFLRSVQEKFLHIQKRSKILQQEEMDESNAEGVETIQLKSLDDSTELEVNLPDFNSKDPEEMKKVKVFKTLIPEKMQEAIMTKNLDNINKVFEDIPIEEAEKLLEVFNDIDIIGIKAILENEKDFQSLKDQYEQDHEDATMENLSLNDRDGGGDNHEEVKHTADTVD", "test": "SEC"}}, "note": "Where two headings read alike, the source gives them in different places.", "data": [{"molecule": "solubilised BRaf V600E kinase domain (sBRafV600E), bacterially expressed (from UniProt P15056 457-717) (domain or fragment)", "values": [{"measurement": "Kd", "setting": "[1]", "result": 200, "unit": "nM"}]}, {"molecule": "NC1=N/C(=C2/CCNC(=O)c3[nH]ccc32)C(=O)N1", "note": "[debromohymenialdisine]", "values": [{"measurement": "Kd", "setting": "Cak1p", "result": "~1700", "unit": "nM"}]}, {"molecule": "BRaf kinase domain (wild-type, native; amino acids 433-726), Sf9 (domain or fragment, human, UniProt P15056 433-726, looked up) EDRNRMKTLGRRDSSDDWEIPDGQITVGQRIGSGSFGTVYKGKWHGDVAVKMLNVTAPTPQQLQAFKNEVGVLRKTRHVNILLFMGYSTKPQLAIVTQWCEGSSLYHHLHIIETKFEMIKLIDIARQTAQGMDYLHAKSIIHRDLKSNNIFLHEDLTVKIGDFGLATVKSRWSGSHQFEQLSGSILWMAPEVIRMQDKNPYSFQSDVYAFGIVLYELMTGQLPYSNINNRDQIIFMVGRGYLSPDLSKVRSNCPKAMKRLMAECLKKKRDERPLFPQILASIELLARSLPKIHR", "values": [{"measurement": "binding result", "setting": "[2]", "result": "binds"}]}, {"molecule": "Cdc37 phosphorylated on Ser13 (natural protein, human, UniProt Q16543 1-378, looked up, phosphoserine at 13) MVDYSVWDHIEVSDDEDETHPNIDTASLFRWRHQARVERMEQFQKEKEELDRGCRECKRKVAECQRKLKELEVAEGGKAELERLQAEAQQLRKEERSWEQKLEEMRKKEKSMPWNVDTLSKDGFSKSMVNTKPEKTEEDSEEVREQKHKTFVEKYEKQIKHFGMLRRWDDSQKYLSDNVHLVCEETANYLVIWCIDLEVEEKCALMEQVAHQTIVMQFILELAKSLKVDPRACFRQFFTKIKTADRQYMEGFNDELEAFKERVRGRAKLRIEKAMKEYEEEERKKRLGPGGLDPVEVYESLPEELQKCFDVKDVQMLQDAISKMDPTDAKYHMQRCIDSGLWVPNSKASEAKEGEEAGPGDPLLEAVPKTGDEKDVSV", "values": [{"measurement": "binding result", "setting": "[3]", "result": "binds"}]}, {"molecule": "B1", "values": [{"measurement": "binding result", "setting": "[4]", "result": "binds"}]}, {"molecule": "Cak1p, cyclin-dependent kinase activating kinase from budding yeast (enzyme, UniProt P43568 1-368, looked up) MKLDSIDITHCQLVKSTRTARIYRSDTYAIKCLALDFDIPPHNAKFEVSILNKLGNKCKHILPLLESKATDNNDLLLLFPFEEMNLYEFMQMHYKRDRRKKNPYYDLLNPSIPIVADPPVQKYTNQLDVNRYSLSFFRQMVEGIAFLHENKIIHRDIKPQNIMLTNNTSTVSPKLYIIDFGISYDMANNSQTSAEPMDSKVTDISTGIYKAPEVLFGVKCYDGGVDVWSLLIIISQWFQRETSRMGHVPAMIDDGSDDMNSDGSDFRLICSIFEKLGIPSIQKWEEVAQHGSVDAFVGMFGADGDGKYVLDQEKDVQISIVERNMPRLDEIADVKVKQKFINCILGMVSFSPNERWSCQRILQELEKP", "values": [{"measurement": "binding result", "setting": "budding yeast Cdc37p", "result": "binds"}]}]}
